Test results published in patent publication US20190055556A1 (Stanford University, published 2019).

B1: pleiotrophin (PTN) (ligand, human, UniProt P21246 33-168, looked up)
chain: GKKEKPEKKVKKSDCGEWQWSVCVPTSGDCGLGTREGTRTGAECKQTMKTQRCKIPCNWKKQFGAECKYQFQAWGECDLNTALKTRTGSLKRALHNAECQKTVTISKPCGKLTKPKPQAESKKKKKEGKKQEKMLD
notes: In the SEC and co-IP experiments this is the endogenous protein in SVZ hNPC conditioned media
B2: secreted protein acidic and rich in cysteine (SPARC) (other, human, UniProt P09486 18-303, looked up)
chain: APQQEALPDETEVVEETVAEVTEVSVGANPVQVEVGEFDDGAEETEEEVVAENPCQNHHCKHGKVCELDENNTPMCVCQDPTSCPAPIGEFEKVCSNDNKTFDSSCHFFATKCTLEGTKKGHKLHLDYIGPCKYIPPCLDSELTEFPLRMRDWLKNVLVTLYERDEDNNLLTEKQKLRVKKIHENEKRLEAGDHPVELLARDFEKNYNMYIFPVHWQFGQLDQHPIDGYLSHTELAPLRAPLIPMEHCTTRFFETCDLDNDKYIALDEWAGCFGIKQKDIDKDLVI
notes: Endogenous protein in SVZ hNPC conditioned media
B3: SPARC-like protein 1 (SPARCL1) (other, human, UniProt Q14515 17-664, looked up)
chain: IPTNARLLSDHSKPTAETVAPDNTAIPSLRAEAEENEKETAVSTEDDSHHKAEKSSVLKSKEESHEQSAEQGKSSSQELGLKDQEDSDGHLSVNLEYAPTEGTLDIKEDMSEPQEKKLSENTDFLAPGVSSFTDSNQQESITKREENQEQPRNYSHHQLNRSSKHSQGLRDQGNQEQDPNISNGEEEEEKEPGEVGTHNDNQERKTELPREHANSKQEEDNTQSDDILEESDQPTQVSKMQEDEFDQGNQEQEDNSNAEMEEENASNVNKHIQETEWQSQEGKTGLEAISNHKETEEKTVSEALLMEPTDDGNTTPRNHGVDDDGDDDGDDGGTDGPRHSASDDYFIPSQAFLEAERAQSIAYHLKIEEQREKVHENENIGTTEPGEHQEAKKAENSSNEEETSSEGNMRVHAVDSCMSFQCKRGHICKADQQGKPHCVCQDPVTCPPTKPLDQVCGTDNQTYASSCHLFATKCRLEGTKKGHQLQLDYFGACKSIPTCTDFEVIQFPLRMRDWLKNILMQLYEANSEHAGYLNEKQRNKVKKIYLDEKRLLAGDHPIDLLLRDFKKNYHMYVYPVHWQFSELDQHPMDRVLTHSELAPLRASLVPMEHCITRFFEECDPNKDKHITLKEWGHCFGIKEEDIDENLLF
notes: as for B2
B4: insulin-like growth factor binding protein 2 (IGFBP2) (other, human, UniProt P18065 36-325, looked up)
chain: AEVLFRCPPCTPERLAACGPPPVAPPAAVAAVAGGARMPCAELVREPGCGCCSVCARLEGEACGVYTPRCGQGLRCYPHPGSELPLQALVMGEGTCEKRRDAEYGASPEQVADNGDDHSEGGLVENHVDSTMNMLGGGGSAGRKPLKSGMKELAVFREKVTEQHRQMGKGGKHHLGLEEPKKLRPPPARTPCQQELDQVLERISTMRLPDERGPLEHLYSLHIPNCDKHGLYNLKQCKMSLNGQRGECWCVNPNTGKLIQGAPTIRGDPECHLFYNEQQEARGVHTQRMQ
notes: Control protein of the pull-down assay

How the values were obtained:
Test in all cases: co-immunoprecipitation from SVZ hNPC conditioned media, Western blot
[1] = molecular target: T1, brevican (BCAN) (human, UniProt Q96GW7 23-911, limits assumed)
T1 construct: Control protein of the pull-down assay
T1 sequence (looked up): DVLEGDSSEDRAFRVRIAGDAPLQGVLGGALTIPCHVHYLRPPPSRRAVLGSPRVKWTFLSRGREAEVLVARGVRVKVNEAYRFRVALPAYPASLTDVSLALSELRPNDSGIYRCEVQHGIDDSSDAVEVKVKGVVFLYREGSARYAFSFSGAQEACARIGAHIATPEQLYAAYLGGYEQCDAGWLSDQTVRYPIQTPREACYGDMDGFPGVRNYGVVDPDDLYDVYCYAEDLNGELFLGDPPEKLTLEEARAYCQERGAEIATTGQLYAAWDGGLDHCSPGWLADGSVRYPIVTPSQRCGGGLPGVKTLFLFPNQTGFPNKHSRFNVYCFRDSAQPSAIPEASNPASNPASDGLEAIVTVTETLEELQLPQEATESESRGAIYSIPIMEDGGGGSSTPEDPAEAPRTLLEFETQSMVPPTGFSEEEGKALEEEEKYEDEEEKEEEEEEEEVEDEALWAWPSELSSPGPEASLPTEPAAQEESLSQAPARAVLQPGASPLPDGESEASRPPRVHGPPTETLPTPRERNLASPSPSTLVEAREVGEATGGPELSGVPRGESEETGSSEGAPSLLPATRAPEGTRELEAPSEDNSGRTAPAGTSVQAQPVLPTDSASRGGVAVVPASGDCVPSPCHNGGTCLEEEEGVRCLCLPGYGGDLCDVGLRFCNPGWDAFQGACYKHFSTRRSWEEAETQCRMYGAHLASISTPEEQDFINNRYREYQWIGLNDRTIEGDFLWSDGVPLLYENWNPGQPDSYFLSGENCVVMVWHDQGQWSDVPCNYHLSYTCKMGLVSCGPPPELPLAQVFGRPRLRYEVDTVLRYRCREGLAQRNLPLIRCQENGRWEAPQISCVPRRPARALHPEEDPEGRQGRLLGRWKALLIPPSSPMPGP
Method: (§1) To assess the specificity of the pull-down assay, three control proteins also present in SVZ hNPC CM: 78 kDa glucose-regulated protein (GRP78), insulin-like growth factor binding protein 2 (IGFBP2), and brevican (BCAN), were immunoprecipitated and were not found to copurify with any of the four proteins (FIG. 4D).
(§2) Immunoprecipitation reactions were conducted using the Pierce Crosslink Magnetic IP/Co-IP Kit (Thermo Scientific, Waltham, Mass.). 25 μL of Pierce Protein A/G Magnetic Beads per reaction were rinsed and incubated with 5 μg of antibody on a rotating platform for 15 minutes at room temperature. Antibodies used were: mouse anti-pleiotrophin (Santa Cruz Biotechnology, Santa Cruz, Calif.), rabbit anti-SPARC (Santa Cruz Biotechnology, Santa Cruz, Calif.), mouse anti-SPARCL1 (Santa Cruz Biotechnology, Santa Cruz, Calif.), rabbit anti-HSP90B (GeneTex, Irvine, Calif.), rabbit normal IgG (Santa Cruz Biotechnology, Santa Cruz, Calif.), and mouse normal IgG (Santa Cruz Biotechnology, Santa Cruz, Calif.). Beads were rinsed, and subsequently crosslinked to the antibodies using 0.02 mM DSS for 30 minutes at room temperature. Beads were washed and then incubated with a mixed combination of 250 μL neural precursor cell conditioned media and 250 μL IP lysis/wash buffer overnight at 4° C. The following morning, beads were washed, resuspended in Laemmli loading buffer, and boiled at 100° C. for 5 minutes to release the bound antigens from the beads. Samples were loaded immediately onto Western blots for analysis of the bound antigens, or stored at −20° C. for future analysis. For Western blot analysis, 2% of the input conditioned media was loaded, and 5% of the IP bound antigen samples were loaded.

[2] = molecular target: T2, 78 kDa glucose-regulated protein (GRP78) (human, UniProt P11021 19-654)
T2 construct: Control protein of the pull-down assay
T2 sequence (P11021 19-654 limits assumed): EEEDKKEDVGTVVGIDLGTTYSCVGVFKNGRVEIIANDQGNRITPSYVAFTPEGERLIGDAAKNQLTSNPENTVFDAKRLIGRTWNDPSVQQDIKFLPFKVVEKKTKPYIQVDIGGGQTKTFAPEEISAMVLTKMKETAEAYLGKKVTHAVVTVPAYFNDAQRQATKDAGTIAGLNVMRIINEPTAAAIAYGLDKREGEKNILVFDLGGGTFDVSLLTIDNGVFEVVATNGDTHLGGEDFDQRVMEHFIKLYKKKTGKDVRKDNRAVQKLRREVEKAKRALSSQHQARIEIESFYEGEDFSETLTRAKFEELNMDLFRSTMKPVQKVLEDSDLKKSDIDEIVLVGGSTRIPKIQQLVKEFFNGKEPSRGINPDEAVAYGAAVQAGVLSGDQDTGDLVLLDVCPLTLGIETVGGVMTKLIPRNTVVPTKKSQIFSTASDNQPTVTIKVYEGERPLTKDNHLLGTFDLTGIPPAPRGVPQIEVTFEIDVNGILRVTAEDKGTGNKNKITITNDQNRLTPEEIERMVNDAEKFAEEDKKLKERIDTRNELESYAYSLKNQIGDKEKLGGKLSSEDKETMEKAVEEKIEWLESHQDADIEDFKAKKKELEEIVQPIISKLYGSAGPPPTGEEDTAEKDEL
Method: as §1, §2

[3] = molecular target: B4
Method: as §1, §2

[4] = molecular target: T3, heat shock protein 90B (HSP90B) (human, UniProt P14625 22-803, limits assumed)
T3 construct: Endogenous protein in SVZ hNPC conditioned media; 'HSP90B' alone is ambiguous
T3 sequence (P14625 22-803 limits assumed): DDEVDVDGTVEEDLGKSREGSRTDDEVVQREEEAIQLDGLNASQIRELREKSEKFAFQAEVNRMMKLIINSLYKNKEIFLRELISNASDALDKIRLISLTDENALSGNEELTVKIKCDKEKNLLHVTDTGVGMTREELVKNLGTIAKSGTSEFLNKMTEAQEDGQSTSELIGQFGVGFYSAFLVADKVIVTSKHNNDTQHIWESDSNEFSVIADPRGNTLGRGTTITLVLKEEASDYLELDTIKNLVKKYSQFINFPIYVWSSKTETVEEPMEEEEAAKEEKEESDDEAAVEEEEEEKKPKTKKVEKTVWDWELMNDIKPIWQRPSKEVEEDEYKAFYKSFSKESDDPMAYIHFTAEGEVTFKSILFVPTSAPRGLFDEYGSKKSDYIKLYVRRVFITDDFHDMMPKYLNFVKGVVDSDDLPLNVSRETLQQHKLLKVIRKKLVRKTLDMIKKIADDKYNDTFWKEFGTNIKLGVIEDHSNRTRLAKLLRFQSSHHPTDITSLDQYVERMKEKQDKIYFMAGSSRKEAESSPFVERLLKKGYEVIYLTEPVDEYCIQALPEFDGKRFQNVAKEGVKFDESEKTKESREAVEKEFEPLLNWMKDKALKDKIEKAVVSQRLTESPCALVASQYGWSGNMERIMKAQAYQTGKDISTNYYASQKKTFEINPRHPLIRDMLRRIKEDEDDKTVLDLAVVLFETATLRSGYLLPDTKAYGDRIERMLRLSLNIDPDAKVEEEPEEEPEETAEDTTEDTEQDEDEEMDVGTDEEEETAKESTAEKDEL
Method: as §1, §2

[5] = molecular target: B3
Method: as §1, §2

Row | Binder | binding result [1] | binding result [2] | binding result [3] | binding result [4] | binding result [5]
1 | B1 | no binding | no binding | no binding |  | 
2 | B2 | no binding |  | no binding |  | 
3 | B3 | no binding |  |  |  | 
4 | B4 |  |  |  | no binding | no binding
